Substitutions are numbered along the chain they refer to.
Key:
Test in all cases: SPR; PBP1B versions immobilised to the chip surface; LpoB injected from 19.5 nM to 10 μM; apparent KD by non-linear regression, at least three independent experiments
Details in all cases: both partners purified
[1] = target: T1, PBP1B P162C/I644C (E. coli, UniProt P02919 46-844, P162C | I644C)
T1 construct: PBP1B, E. coli, residues 46-844, made by mutagenesis of pDML924; Disulphide bridge between C162 and C644 (no free thiol groups detected); reduced in the SPR assay with 2 mM TCEP; source: E. coli BL21(DE3), purified (membrane extract, HisTrap, thrombin, HiTrap SP ion exchange)
T1 sequence (looked up): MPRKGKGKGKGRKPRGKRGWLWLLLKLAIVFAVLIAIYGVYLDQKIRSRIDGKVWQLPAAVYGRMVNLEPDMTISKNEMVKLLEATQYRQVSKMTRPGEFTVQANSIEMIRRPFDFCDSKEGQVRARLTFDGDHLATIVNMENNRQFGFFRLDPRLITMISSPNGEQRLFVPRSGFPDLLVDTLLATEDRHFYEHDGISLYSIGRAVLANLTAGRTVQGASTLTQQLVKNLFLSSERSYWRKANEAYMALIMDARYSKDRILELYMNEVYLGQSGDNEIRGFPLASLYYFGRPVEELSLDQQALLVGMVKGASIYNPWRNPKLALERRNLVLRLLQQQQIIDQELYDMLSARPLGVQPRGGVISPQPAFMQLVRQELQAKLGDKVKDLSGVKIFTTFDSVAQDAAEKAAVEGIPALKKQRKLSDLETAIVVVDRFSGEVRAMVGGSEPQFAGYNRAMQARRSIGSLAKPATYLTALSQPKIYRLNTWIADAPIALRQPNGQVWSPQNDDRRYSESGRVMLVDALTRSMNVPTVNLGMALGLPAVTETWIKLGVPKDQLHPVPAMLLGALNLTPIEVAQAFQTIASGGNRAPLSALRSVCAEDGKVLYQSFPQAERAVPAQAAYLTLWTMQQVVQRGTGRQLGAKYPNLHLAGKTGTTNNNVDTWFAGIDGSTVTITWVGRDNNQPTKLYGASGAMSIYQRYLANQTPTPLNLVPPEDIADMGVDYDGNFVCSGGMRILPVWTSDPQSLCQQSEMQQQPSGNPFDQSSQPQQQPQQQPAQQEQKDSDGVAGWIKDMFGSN

[2] = target: T2, PBP1B R157A (E. coli, UniProt P02919 46-844, R157A)
T2 construct: PBP1B, E. coli, residues 46-844, made by mutagenesis of pDML924; source: E. coli BL21(DE3), purified (membrane extract, HisTrap, thrombin, HiTrap SP ion exchange)
T2 sequence (looked up): T1 sequence (looked up) with R112A, C117P, C599I

[3] = target: T3, PBP1B I202F (E. coli, UniProt P02919 46-844, I202F)
T3 construct: PBP1B, E. coli, residues 46-844, made by mutagenesis of pDML924; Substitution first found in the suppressor screen of Markovski et al. 2016 (LpoB bypass); source: E. coli BL21(DE3), purified (membrane extract, HisTrap, thrombin, HiTrap SP ion exchange)
T3 sequence (looked up): T1 sequence (looked up) with C117P, I157F, C599I

Kd [1]: 213 nM
Kd [2]: 505 nM
Kd [3]: 26 nM
B1: LpoB (natural protein, E. coli)
chain: VGQREPAPVEEVKPAPEQPAEPQQPVPTVPSVPTIPQQPGPIEHEDQTAPPAPHIRHYDWNGAMQPMVSKMLGADGVTAGSVLLVDSVNNRTNGSLNAAEATETLRNALANNGKFTLVSAQQLSMAKQQLGLSPQDSLGTRSKAIGIARNVGAHYVLYSSASGNVNAPTLQMQLMLVQTGEIIWSGKGAVSQQ
notes: LpoB, E. coli; also called lipoprotein LpoB; source: E. coli BL21(DE3), purified (HisTrap, Superdex 200), as in Egan et al. 2014

Source: publication PMC6220978, “Induced conformational changes activate the peptidoglycan synthase PBP1B” (Molecular Microbiology, 2018)
